Patent US20220009959A1

What was measured:
[1] = molecular target: CHO-K1 host cell proteins of mAb production clarified cell culture harvest (Chinese hamster (CHO-K1)); assay: static binding pH 7, 20 mM NaCl; HCP ELISA over Easy-Titer (reference: mAb m53)
[2] = molecular target: CHO-K1 host cell proteins of mAb production clarified cell culture harvest (Chinese hamster (CHO-K1)); assay: static binding pH 6, 150 mM NaCl
[3] = molecular target: monoclonal antibody product of the CHO-K1 production harvest; assay: static binding pH 6, 150 mM NaCl
[4] = molecular target: high molecular weight HCPs (MW>150 kDa) of CHO-K1 IgG1 harvest (Chinese hamster (CHO-K1)); assay: flow-through, SEC; 10-30 CV load
[5] = molecular target: high molecular weight HCPs (MW>150 kDa) of CHO-K1 IgG1 harvest (Chinese hamster (CHO-K1)); assay: flow-through, SEC; 1 min RT, 60 CV cut-off load
[6] = molecular target: low molecular weight HCPs (10 kDa<MW<150 kDa) of CHO-K1 IgG1 harvest (Chinese hamster (CHO-K1)); assay: flow-through, SEC; 1 min RT, 60 CV cut-off load

| HCP targeted binding ratio (TBR; % HCP removed / % mAb removed) [1] | Kp (partition coefficient) [2] | Kp (partition coefficient) [3] | fold reduction in HMW species [4] | percent reduction in HMW % [5] | percent reduction in LMW % [6] | Substance |
| --- | --- | --- | --- | --- | --- | --- |
| 4.87 | 7.3 | 0.75 | – | – | – | 4MP-Toyopearl resin |
| – | 6.1 | 0.96 | – | – | – | 6HP-Toyopearl resin |
| – | – | – | 2 to 4 fold | 50% | 36% | 6HP/4MP-Toyopearl resin |
